Biological target: the molecule itself
Assay: SDD-AGE; purified proteins loaded in 0.5 x TBE, 10% glycerol, 2% SDS at room temperature; 1.5% agarose gel with 0.1% SDS; immunoblot

B1: GST-tagged dTrbd^FL (enzyme, Drosophila melanogaster, UniProt Q9VH90 1-778, looked up)
chain: MCDTKDDAQKWKCETCTYENYPSSLKCTMCQASKPLLNEDIFRLSPAQESCTVAEEAAAVEVAVMSPTPSSTCYSLQPQSQARQSNVADSEKWPCKVCTYLNWPRSLRCVQCCTKRGGEAIERGKKDMDNEADGDRAGEALQALRISGSEENLANKPVQLIGATASHRLSLSRGIDDATHLNNLANASHNQSQSQHRQPVLQQQMQLQLQPQQQRESSSSAAVPPQQQKQCYVSKWACNSCTYENWPRSIKCSMCGKTREREISGSQNDLHASSSLNSQEENQQQLQQPNVDTVSVNNSFNKKHIYQLGSSETINNCDTLQERQERRQRQIRRQVDWQWLNACLGVVENNYSAVEAYLSCGGNPARSLTSTEIAALNRNSAFDVGHTLIHLAIRFHREEMLPMLLDQISGSGPGIKRVPSYVAPDLAADIRRHFANTLRLRKSGLPCHYVQKHATFALPAEIEELPIPIQEQLYDELLDRDAQKQLETPPPALNWSLEITARLSSRMFVLWNRSAGDCLLDSAMQATWGVFDRDNILRRALADTLHQCGHVFFTRWKEYEMLQASMLHFTLEDSQFEEDWSTLLSLAGQPGSSLEQLHIFALAHILRRPIIVYGVKYVKSFRGEDIGYARFEGVYLPLFWDQNFCTKSPIALGYTRGHFSALVPMEPFTRIDGRRDDVEDVTYLPLMDCELKLLPIHFLTQSEVGNEESMMRQWLDVCVTDGGLLVAQQKLSKRPLLVAQMLEEWLNHYRRIAQVITAPFIRRPQITHYSSDGDSDEE
notes: dTrbd, Drosophila deubiquitinase, full length; also called GST-dTrbd^FL; source: E. coli BL21, purified (Glutathione Sepharose 4B)
  binding result: binds
